Assay results as given in patent US20250136696A1 (HARBOUR BIOMED SHANGHAI, published 2025).

T1: human B7-H7 on the cell surface (human, UniProt Q9UM44 23-414)
T1 construct: whole, on cells; also called hB7-H7; hu B7-H7
T1 sequence (looked up): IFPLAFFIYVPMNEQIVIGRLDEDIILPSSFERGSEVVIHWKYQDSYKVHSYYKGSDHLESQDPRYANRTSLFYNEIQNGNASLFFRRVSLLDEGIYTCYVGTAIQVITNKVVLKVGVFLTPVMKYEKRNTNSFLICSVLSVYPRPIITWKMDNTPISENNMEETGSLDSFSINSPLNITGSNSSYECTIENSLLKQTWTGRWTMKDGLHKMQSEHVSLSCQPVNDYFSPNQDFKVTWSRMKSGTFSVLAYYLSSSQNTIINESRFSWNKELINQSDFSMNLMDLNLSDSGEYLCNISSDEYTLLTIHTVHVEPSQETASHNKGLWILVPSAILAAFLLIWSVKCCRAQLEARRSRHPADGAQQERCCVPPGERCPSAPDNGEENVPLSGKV

T2: biotinylated human B7-H7 protein (Acro Biosystems, B77-H82F5) (human, UniProt Q9UM44 23-344, biotinylated)
T2 construct: Bought soluble protein; also called biotin-B7H7 protein
T2 sequence (looked up): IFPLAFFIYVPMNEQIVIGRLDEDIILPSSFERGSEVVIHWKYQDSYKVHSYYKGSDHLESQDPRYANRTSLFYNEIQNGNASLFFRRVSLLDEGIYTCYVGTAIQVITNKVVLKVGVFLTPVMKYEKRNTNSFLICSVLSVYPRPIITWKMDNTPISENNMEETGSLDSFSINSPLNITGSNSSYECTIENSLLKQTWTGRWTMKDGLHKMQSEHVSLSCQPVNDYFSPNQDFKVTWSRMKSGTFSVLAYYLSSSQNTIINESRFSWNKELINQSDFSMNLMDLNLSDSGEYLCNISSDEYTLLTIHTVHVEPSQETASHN

T3: human B7-H7 recombinant protein (human, UniProt Q9UM44 23-344)
T3 construct: also called human B7-H7 protein
T3 sequence (looked up): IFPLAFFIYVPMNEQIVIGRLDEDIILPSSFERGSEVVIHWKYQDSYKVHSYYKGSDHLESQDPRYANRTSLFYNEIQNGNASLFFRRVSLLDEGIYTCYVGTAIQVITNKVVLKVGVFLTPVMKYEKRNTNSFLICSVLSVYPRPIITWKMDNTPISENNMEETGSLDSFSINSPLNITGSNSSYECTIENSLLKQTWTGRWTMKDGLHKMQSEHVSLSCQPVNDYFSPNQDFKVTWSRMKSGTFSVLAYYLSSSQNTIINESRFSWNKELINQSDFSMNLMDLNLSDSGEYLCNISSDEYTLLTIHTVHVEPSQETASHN


What was measured:
[1] = target: T1, human B7-H7 on the cell surface; assay: flow cytometry, HCC827 cells
Method: (§1) This example was intended to study the in vitro activity of H2L2 monoclonal antibodies against human B7-H7 in binding to human/cynomolgus monkey B7-H7. Since homologous molecules of B7-H7 were not present in mice, the detection was not performed. […] The cells were adjusted to a cell density of 1×10⁶ cells/mL, respectively. The cells were seeded in a 96-well V-bottom plate (Corning, #3894) at 100 μL/well, and the antibody to be tested at 2× final concentration with 3-fold concentration gradient dilution was then added at 100 μL/well. The cells were incubated at 4° C. for 2 hours in the dark. After the incubation, the cells were rinsed twice by adding pre-chilled PBS containing 2% BSA at 100 μl/well, and centrifuged at 500 g at 4° C. for 5 minutes, and the supernatant was discarded. […] The cells were washed twice by adding pre-chilled PBS containing 2% BSA at 100 μL/well, and centrifuged at 500 g at 4° C. for 5 minutes, and the supernatant was discarded. Finally, the cells were resuspended in pre-chilled PBS containing 2% BSA at 200 μL/well, and the fluorescence signal values were read using an ACEA Novocyte3000 flow cytometer.

[2] = target: T1, human B7-H7 on the cell surface; assay: flow cytometry, HEK-293/hu B7-H7 cells
Method: as §1

[3] = target: T4, cynomolgus monkey B7-H7 on the cell surface (cynomolgus monkey); assay: flow cytometry, HEK-293/cyno B7-H7 cells
T4 construct: whole, on cells; also called cyno B7-H7
Method: as §1

[4] = target: T2, biotinylated human B7-H7 protein (Acro …); assay: flow cytometry, blocking of biotinylated human B7-H7 binding to HEK-293/CD28H cells
Method: This example was intended to study the in vitro blocking activity of human anti-B7-H7 antibodies against the binding of human B7-H7 to its receptor CD28H. […] The cells were adjusted to a cell density of 1×10⁶ cells/mL. […] The cells were incubated at 4° C. for 1 hour in the dark. […] The cells were rinsed twice by adding pre-chilled PBS containing 2% BSA at 100 μL/well, and were centrifuged at 500 g at 4° C. for 5 minutes, and the supernatant was discarded. A fluorescent secondary antibody (PE Streptavidin, BD, Cat #: 554061, 1:200) was added at 100 μL/well, and the cells were incubated at 4° C. for 30 minutes in the dark. The cells were washed twice by adding pre-chilled PBS at 200 μL/well, and centrifuged at 500 g at 4° C. for 5 minutes, and the supernatant was discarded. Finally, the cells were resuspended in pre-chilled PBS at 200 μL/well, and the fluorescence signal values were read using an ACEA Novocyte3000 flow cytometer. IC50 was calculated.

[5] = target: T2, biotinylated human B7-H7 protein (Acro …); assay: flow cytometry, blocking of biotinylated human B7-H7 binding to CHO-K1/KIR3DL3 cells
Text: This example was intended to study the in vitro blocking activity of human anti-B7-H7 antibodies against the binding of human B7-H7 to its receptor KIR3DL3. A CHO-K1 cell (CHO-K1/KIR3DL3, Harbour BioMed US, Inc.) overexpressing human KIR3DL3 was used in experiments at the cellular level where human B7-H7/human KIR3DL3 binding was blocked. Briefly, the CHO-K1/KIR3DL3 cells were digested and resuspended in PBS containing 2% BSA. The cells were adjusted to a cell density of 1×10⁶ cells/mL. […] The cells were incubated at 4° C. for 1 hour in the dark. […] The cells were rinsed twice by adding pre-chilled PBS containing 2% BSA at 100 μL/well, and were centrifuged at 500 g at 4° C. for 5 minutes, and the supernatant was discarded. A fluorescent secondary antibody (PE Streptavidin, BD, Cat #: 554061, 1:200) was added at 100 μL/well, and the cells were incubated at 4° C. for 30 minutes in the dark. The cells were washed twice by adding pre-chilled PBS at 200 µL/well, and centrifuged at 500 g at 4° C. for 5 minutes, and the supernatant was discarded. Finally, the cells were resuspended in pre-chilled PBS at 200 μL/well, and the fluorescence signal values were read using an ACEA Novocyte3000 flow cytometer. IC50 was calculated.

[6] = target: T3, human B7-H7 recombinant protein; assay: BLI (Octet), antibody captured on AHC sensor, human B7-H7 in solution, 1:1 global fit
Method: The binding kinetics between antigen and antibody was analyzed using an Octet Red 96e (Fortebio) molecular interaction analyzer by biolayer interferometry (BLI) technology.
For determining the affinity of antibodies for antigens, the rotary speed of the sensor was set at 1000 rpm. AHC sensors (Fortebio, #18-5060) placed in one column were first equilibrated in a test buffer for 10 minutes, and then used to capture the anti-B7-H7 antibodies at a capture height of 0.7 nm; and after being equilibrated in the buffer for 120 s, the AHC sensors bound to human B7-H7 (concentrations: 50-3.125 nM and 0 nM) with 2-fold gradient dilution for 180 s and dissociated for 300 s. The AHC sensors were finally regenerated by immersing in a 10 mM glycine-hydrochloric acid solution with pH 1.5 to elute the protein bound to the sensors.
For data analysis using Octet Data Analysis software (Fortebio, version 11.0), 0 nM well was used as the reference well, reference subtraction was performed, “1:1 Global fitting” method was selected for data fitting, the kinetic parameters of the binding of the antigen to the antigen-binding protein were calculated, and the kₒₙ (1/Ms) value, kdis (1/s) value and KD (M) value were obtained.

[7] = target: T2, biotinylated human B7-H7 protein (Acro …); assay: BLI epitope competition on SA-captured biotinylated B7-H7; competitor (first antibody) PR003249
Method: Epitope competition experiments were performed on the anti-B7-H7 antibodies using the ForteBio Octet Red96e platform with the same experimental buffer as described above. […] After being equilibrated in a buffer for 120 s, the sensors were immersed in various antibodies diluted to 100 nM for 240 s, and the final signal of the antibody binding to B7-H7 was recorded as the 100% signal for that antibody. Second step, epitope competition experiment: B7-H7 was captured using SA sensors at a capture height of 0.25 nm. The sensors were immersed in a first antibody (concentration: 100 nM) for 240 s, then the SA sensors were immersed in a mixture of the first antibody and a second antibody (final concentration of both antibodies: 100 nM) for 240 s, and the difference in signals before and after immersing the sensors in the mixture of the two antibodies was recorded as the signal for that antibody as the second antibody. The inhibition rate was calculated by the following equation, […]

| Binder | Maximum MFI [1] [MFI] | EC50 [2] [nM] | Maximum MFI [2] [MFI] | EC50 [3] [nM] | Maximum MFI [3] [MFI] | IC50 [4] [nM] | Maximum inhibition rate (%) [4] [%] | IC50 [5] [nM] | Maximum inhibition rate (%) [5] [%] | Kd [6] [nM] | koff [6] [s⁻¹] | kon [6] [M⁻¹ s⁻¹] | Competitive inhibition rate (%) [7] [%] | EC50 [1] [nM] |
| --- | --- | --- | --- | --- | --- | --- | --- | --- | --- | --- | --- | --- | --- | --- |
| PR003252 (antibody, human IgG1, kappa, V domains shown, Human IgG1; also called 53C12D4) VH: QVQLVESGGGVVQPGRSLRLSCAASGFTFSNYAMHWVRQVPGKGLEWVALIWYDGSEKYYADSVKGRFTISRDDSKNTLFLQMSSLRAEDTAVYSCVREYSSGWGYFDYWGQGTQVTVSS VL: DIQMTQSPSTLSASVGDRVTITCRASQSISSWLAWYQQKPGKAPKLLIYKASSLKSGVPSRFSGSGSGTEFTLTISSLQPDDFATYYCLQYNSYYTFGQGTKLEIKR | 69400 | 1.04 | 837000 | 0.429 | 414000 | 1.43 | 101 | 7.59 | 97.1 | 1.06 | 0.000132 | 125000 | 107 |  |
| PR003265 (antibody, human IgG1, kappa, V domains shown, Human IgG1; also called 78G8B3) VH: QVQLVESGGGVVQPGRSLRLSCAASGFTFSTYGLHWVRQAPGKGLEWVAVIWYDESNEYYADSVKGRFTISRDNSKNTLYLQMNSLRAEDTALYYCARLAHDYGGTYFDYWGQGTLVTVSS VL: EIVMTQSPAILSVSPGERATLSCRASQSISYNLAWYQQKPGQAPRLLIYGASIRATGIPARFSGSGSGTDFTLTISSLQSEDFAVYYCQQYNNWPPWTFGQGTKVEIKR | 51800 | 1.24 | 824000 | 0.711 | 451000 | 1.39 | 102 | 7.04 | 101 | 0.595 | 2.93e-05 | 49300 | 106 | 0.0903 |
| PR003261 (antibody, human IgG1, kappa, V domains shown, Human IgG1; also called 74A11E4) VH: QVQLVESGGGVVQPGRSLRLSCAASGFTFSNYGMHWVRQAPGKGLEWVAVIWYDGTNKNYADSVKGRFTISRDNSKNTLDLQMNSLRAEDTAVYFCARDRNTAMDYFVYWGQGTLVTVSS VL: not shown | 60100 | 0.941 | 723000 | 0.326 | 275000 | 1.49 | 100 | 7.5 | 105 | 4.6 | 0.000336 | 73000 | 111 | 0.0445 |
